Data: patent US20240287138A1 (Merck Sharp & Dohme, published 2024)
Bridge positions count the residues as written; N and C are the ends. Square brackets hold non-standard residues; d marks the D form. Primed or numbered codes have the meaning given here. Trp(βS-Me,7-OMe) = COc1cccc2c([C@H](C)[C@H](N)C(=O)O)c[nH]c12; Phe(2-F,4-COOH) = N[C@@H](Cc1ccc(C(=O)O)cc1F)C(=O)O; Trp(7-CN) = N#Cc1cccc2c(C[C@H](N)C(=O)O)c[nH]c12; Trp(7-Cl) = N[C@@H](Cc1c[nH]c2c(Cl)cccc12)C(=O)O; Phe(3-COOH) = N[C@@H](Cc1cccc(C(=O)O)c1)C(=O)O; Phe(4-CONH2) = NC(=O)c1ccc(C[C@H](N)C(=O)O)cc1; Phe(4-COOH) = N[C@@H](Cc1ccc(C(=O)O)cc1)C(=O)O; Trp(7-aza) = N[C@@H](Cc1c[nH]c2ncccc12)C(=O)O; Phe(4-CH2NH2) = NCc1ccc(C[C@H](N)C(=O)O)cc1; 3Pal = N[C@@H](Cc1cccnc1)C(=O)O; 4Pal = N[C@@H](Cc1ccncc1)C(=O)O; NMeE = CN[C@@H](CCC(=O)O)C(=O)O; dHyp = O=C(O)[C@H]1C[C@H](O)CN1; dNMeE = CN[C@H](CCC(=O)O)C(=O)O; Phe4AcPip = not defined here; Pipt5OH = not defined here; αMeS = C[C@](N)(CO)C(=O)O; Nle = CCCC[C@H](N)C(=O)O; Pip2c = not defined here; TZAla = not defined here; Ahp′ = not defined here; Pip′ = not defined here; MO2 = not defined here; Sar = CNCC(=O)O

T1: TNFR1 on THP-1 Lucia NF-kB reporter cells (UniProt P19438 30-455, limits assumed)
T1 sequence (looked up): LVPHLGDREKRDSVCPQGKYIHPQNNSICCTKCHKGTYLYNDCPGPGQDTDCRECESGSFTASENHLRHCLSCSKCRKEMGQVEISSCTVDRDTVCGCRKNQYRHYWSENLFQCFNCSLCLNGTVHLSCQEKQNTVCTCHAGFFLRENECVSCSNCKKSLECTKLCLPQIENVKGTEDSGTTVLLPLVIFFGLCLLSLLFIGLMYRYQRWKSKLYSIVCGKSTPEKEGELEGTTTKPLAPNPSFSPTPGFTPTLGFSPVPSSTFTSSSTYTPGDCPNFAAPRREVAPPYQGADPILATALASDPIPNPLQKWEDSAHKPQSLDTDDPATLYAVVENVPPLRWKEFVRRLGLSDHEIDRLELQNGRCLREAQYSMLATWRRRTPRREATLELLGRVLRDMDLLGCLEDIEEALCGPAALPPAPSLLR

B1: SEQ ID NO. 107 (peptide)
peptide: cyclo([bhcLeu][Nle][4Pal][Pip2c]W[NMeE]N[4Pal][Trp(7-Cl)][αMeS][Phe(4-COOH)][Phe(2-F,4-COOH)][Sar][Trp(βS-Me,7-OMe)])
modifications: reading uncertain; also: printed as cyclo(bhcLeu-Nle-4Pal-Pip2c-W-NMeE-N-4Pal-Trp7Cl-aMeS-Phe4COOH-Phe2F4COOH-Sar-SbMeW7OMe)
B2: SEQ ID NO. 117 (peptide)
peptide: cyclo([bhcLeu][Nle][4Pal][Pip2c]W[NMeE]N[Phe4COOMe][Trp(7-Cl)][αMeS][Phe(4-COOH)]Y[Sar][Trp(βS-Me,7-OMe)])
modifications: reading uncertain; also: printed as cyclo(bhcLeu-Nle-4Pal-Pip2c-W-NMeE-N-Phe4COOMe-Trp7Cl-aMeS-Phe4COOH-Y-Sar-SbMeW7OMe)
B3: SEQ ID NO. 137 (peptide)
peptide: cyclo([bhcLeu][hL][4Pal][Pip2c]W[NMeE]N[4Pal][Trp(7-Cl)][αMeS][Phe(4-COOH)]Y[Sar][Trp(βS-Me,7-OMe)])
modifications: reading uncertain; also: printed as cyclo(bhcLeu-hL-4Pal-Pip2c-W-NMeE-N-4Pal-Trp7Cl-aMeS-Phe4COOH-Y-Sar-SbMeW7OMe)
B4: SEQ ID NO. 52 (peptide)
peptide: {CH2CO}-[Nle][4Pal][Pip2c][TrpCH2COOH][NMeE]N[Phe(4-COOH)][Trp(7-Cl)][αMeS][Phe(4-CONH2)]Y[Sar][Trp(βS-Me,7-OMe)]C-NH2
modifications: thioether N-14; reading uncertain; also: printed as cyclo(ClAc-Nle-4Pal-Pip2c-TrpCH2COOH-NMeE-N-Phe4COOH-Trp7Cl-aMeS-Phe4CONH2-Y-Sar-SbMeW7OMe-C)-NH2
B5: SEQ ID NO. 126 (peptide)
peptide: cyclo([bhcLeu][Nle][4Pal][Pipt5OH]W[NMeE]N[4Pal][Trp(7-Cl)][αMeS][Phe(4-CONH2)][TyrOcm][Sar][Trp(βS-Me,7-OMe)])
modifications: reading uncertain; also: printed as cyclo(bhcLeu-Nle-4Pal-Pipt5OH-W-NMeE-N-4Pal-Trp7Cl-aMeS-Phe4CONH2-TyrOcm-Sar-SbMeW7OMe)
B6: SEQ ID NO. 64 (peptide)
peptide: cyclo([bhcLeu][Nle][4Pal][Pip2c]W[NMeE][MO2][4Pal][Trp(7-Cl)][αMeS][Phe(4-COOH)]Y[Sar][Trp(βS-Me,7-OMe)])
modifications: reading uncertain; also: printed as cyclo(bhcLeu-Nle-4Pal-Pip2c-W-NMeE-MO2-4Pal-Trp7Cl-aMeS-Phe4COOH-Y-Sar-SbMeW7OMe)
B7: SEQ ID NO. 55 (peptide)
peptide: cyclo([bhcLeu][Ahp′][SbMe4Pal]DW[dHyp]N[Phe(4-COOH)][Trp(7-CN)][αMeS][Phe(4-CONH2)][Phe(4-CONH2)][Sar][Trp(βS-Me,7-OMe)])
modifications: reading uncertain; also: printed as cyclo(bhcLeu-Ahp-SbMe4Pal-D-W-dProt4OH-N-Phe4COOH-Trp7CN-aMeS-Phe4CONH2-Phe4CONH2-Sar-SbMeW7OMe)
B8: SEQ ID NO. 28 (peptide)
peptide: cyclo([bhcLeu][Nle][4Pal][Pip2c]W[NMeE]N[4Pal][Trp(7-Cl)][αMeS][Phe(3-COOH)]Y[Sar][Trp(βS-Me,7-OMe)])
modifications: reading uncertain; also: printed as cyclo(bhcLeu-Nle-4Pal-Pip2c-W-NMeE-N-4Pal-Trp7Cl-aMeS-Phe3COOH-Y-Sar-SbMeW7OMe)
B9: SEQ ID NO. 25 (peptide)
peptide: cyclo([bhcLeu][Nle][4Pal][Pipt5OH]W[dHyp][SbOHAsn][4Pal][Trp(7-CN)][αMeS][Phe(4-CONH2)][Phe(4-COOH)][Sar][Trp(βS-Me,7-OMe)])
modifications: reading uncertain; also: printed as cyclo(bhcLeu-Nle-4Pal-Pipt5OH-W-dProt4OH-SbOHAsn-4Pal-Trp7CN-aMeS-Phe4CONH2-Phe4COOH-Sar-SbMeW7OMe)
B10: SEQ ID NO. 63 (peptide)
peptide: cyclo([bhcLeu][Nle][4Pal][Pip2c]W[NMeE]N[4Pal][Trp(7-Cl)][αMeS][Phe(4-COOH)][Phe4AcPip][Sar][Trp(βS-Me,7-OMe)])
modifications: reading uncertain; also: printed as cyclo(bhcLeu-Nle-4Pal-Pip2c-W-NMeE-N-4Pal-Trp7Cl-aMeS-Phe4COOH-Phe4AcPip-Sar-SbMeW7OMe)
B11: SEQ ID NO. 111 (peptide)
peptide: cyclo([bhcLeu][Nle][4Pal][Pip2c]W[NMeE]N[4Pal][Trp(7-Cl)][αMeS][F4MCO2H]Y[Sar][Trp(βS-Me,7-OMe)])
modifications: reading uncertain; also: printed as cyclo(bhcLeu-Nle-4Pal-Pip2c-W-NMeE-N-4Pal-Trp7Cl-aMeS-F4MCO2H-Y-Sar-SbMeW7OMe)
B12: SEQ ID NO. 24 (peptide)
peptide: cyclo([bhcLeu][Nle][4Pal][Pip2c]W[NMeE]N[4Pal][Trp(7-Cl)][αMeS][Phe(4-COOH)][Tyr3OMe][Sar][Trp(βS-Me,7-OMe)])
modifications: reading uncertain; also: printed as cyclo(bhcLeu-Nle-4Pal-Pip2c-W-NMeE-N-4Pal-Trp7Cl-aMeS-Phe4COOH-Tyr3OMe-Sar-SbMeW7OMe)
B13: SEQ ID NO. 108 (peptide)
peptide: cyclo([bhcLeu][Nle][4Pal][Pip2c]W[NMeE]N[Phe(2-F,4-COOH)][Trp(7-Cl)][αMeS][Phe(4-COOH)]Y[Sar][Trp(βS-Me,7-OMe)])
modifications: reading uncertain; also: printed as cyclo(bhcLeu-Nle-4Pal-Pip2c-W-NMeE-N-Phe2F4COOH-Trp7Cl-aMeS-Phe4COOH-Y-Sar-SbMeW7OMe)
B14: SEQ ID NO. 138 (peptide)
peptide: cyclo([bhcLeu][Nle][4Pal][Pip2c]W[NMeE]N[TZAla][Trp(7-Cl)][αMeS][Phe(4-COOH)]Y[Sar][Trp(βS-Me,7-OMe)])
modifications: reading uncertain; also: printed as cyclo(bhcLeu-Nle-4Pal-Pip2c-W-NMeE-N-TZAla-Trp7Cl-aMeS-Phe4COOH-Y-Sar-SbMeW7OMe)
B15: SEQ ID NO. 142 (peptide)
peptide: cyclo([bhcLeu][SerOEt][4Pal][Pipt5OH]W[dHyp]N[4Pal][Trp(7-Cl)][αMeS][Phe(4-CONH2)][Phe(4-COOH)][Sar][Trp(βS-Me,7-OMe)])
modifications: reading uncertain; also: printed as cyclo(bhcLeu-SerOEt-4Pal-Pipt5OH-W-dProt4OH-N-4Pal-Trp7Cl-aMeS-Phe4CONH2-Phe4COOH-Sar-SbMeW7OMe)
B16: SEQ ID NO. 40 (peptide)
peptide: cyclo([bhcLeu][Nle][3Pal][Pip2c]W[NMeE]N[4Pal][Trp(7-Cl)][αMeS][Phe(4-COOH)]Y[Sar][Trp(βS-Me,7-OMe)])
modifications: reading uncertain; also: printed as cyclo(bhcLeu-Nle-3Pal-Pip2c-W-NMeE-N-4Pal-Trp7Cl-aMeS-Phe4COOH-Y-Sar-SbMeW7OMe)

These binders were tested against T1, TNFR1 on THP-1 Lucia NF-kB reporter … (assay: cell-based or functional assay).

| Binder | THP-1 IC50 [nM] |
| --- | --- |
| B1 | 1 |
| B2 | 2.1 |
| B3 | 1.3 |
| B4 | 3.9 |
| cyclo([bhcLeu][Nle][4Pal][Pipt5OH][Trp(7-aza)][dNMeE]N[F4SO2NH2][Trp(7-CN)][αMeS][Phe(4-CONH2)][Phe(4-COOH)][Sar][Trp(βS-Me,7-OMe)]) (reading uncertain) [SEQ ID NO. 133] | 1.4 |
| B5 | 0.8 |
| B6 | 1.1 |
| B7 | 1.3 |
| cyclo([bhcLeu][LysMe3][4Pal][Pip′]W[NMeE]N[4Pal][Trp(7-Cl)][αMeS][Phe(4-COOH)]Y[Sar][Trp(βS-Me,7-OMe)]) [SEQ ID NO. 47] | 1.9 |
| B8 | 1.6 |
| {CH2CO}-[Nle][4Pal][Pip′][Trp(7-aza)][NMeE]N[Phe(4-CH2NH2)][Trp(7-Cl)][αMeS][Phe(4-CH2NH2)]Y[Sar][Trp(βS-Me,7-OMe)]C-NH2 (thioether N-14) [SEQ ID NO. 58] | 16.2 |
| B9 | 0.8 |
| B10 | 1.2 |
| B11 | 1.6 |
| cyclo([bhcLeu][Nle][4Pal][Pipc5CO2H]W[NMeE]N[4Pal][Trp(7-Cl)][αMeS][Phe(4-COOH)]Y[Sar][Trp(βS-Me,7-OMe)]) [SEQ ID NO. 120] | 1.4 |
| B12 | 0.7 |
| B13 | 1.2 |
| {CH2CO}-[Nle][4Pal][Prot4NH2][Trp(7-aza)][NMeE]N[4Pal][Trp(7-Cl)][αMeS][Phe(4-COOH)]Y[Sar][Trp(βS-Me,7-OMe)]C-NH2 (thioether N-14) [SEQ ID NO. 125] | 4.1 |
| B14 | 2 |
| B15 | 1.1 |
| B16 | 1.5 |
